From patent US20230111363A1 come the findings set out here.

pKd: −log10 of the molar value.

Test [1] has as its target human FcγRI (CD64) extracellular domain (human) (UniProt P12314). Description: SPR (Biacore T100), antibody captured on Protein A, FcγR ECD as analyte, 25 C. On the technique in general: Surface plasmon resonance follows binding to a sensor surface in real time, without labels.
In test [2] the target is human FcγRIIIA_F158 (CD16a) extracellular domain (human) (UniProt P08637). Description: SPR (Biacore T100), antibody captured on Protein A, FcγR ECD as analyte, steady state, 25 C.
human FcγRIIIA_F158 (CD16a) extracellular domain (human), sequence (P08637 17-208): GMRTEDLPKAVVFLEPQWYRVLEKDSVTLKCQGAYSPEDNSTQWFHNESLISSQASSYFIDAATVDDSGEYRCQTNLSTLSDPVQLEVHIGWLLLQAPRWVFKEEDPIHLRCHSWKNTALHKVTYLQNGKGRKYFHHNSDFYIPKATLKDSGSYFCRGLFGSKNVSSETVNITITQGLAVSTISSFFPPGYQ
In test [3] the target is human FcγRIIb (CD32b) extracellular domain (human) (UniProt P31994). The description is as above.
human FcγRIIb (CD32b) extracellular domain (human), sequence (P31994 43-217): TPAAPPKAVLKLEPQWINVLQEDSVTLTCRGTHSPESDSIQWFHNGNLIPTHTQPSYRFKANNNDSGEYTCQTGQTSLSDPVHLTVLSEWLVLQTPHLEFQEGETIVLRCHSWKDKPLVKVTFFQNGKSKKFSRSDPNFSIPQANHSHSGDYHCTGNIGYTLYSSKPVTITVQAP
For test [4], the target named is human FcγRIIA_131R (CD32a) extracellular domain (human) (UniProt P12318). Described as above.
human FcγRIIA_131R (CD32a) extracellular domain (human), sequence (P12318 34-217 H167R): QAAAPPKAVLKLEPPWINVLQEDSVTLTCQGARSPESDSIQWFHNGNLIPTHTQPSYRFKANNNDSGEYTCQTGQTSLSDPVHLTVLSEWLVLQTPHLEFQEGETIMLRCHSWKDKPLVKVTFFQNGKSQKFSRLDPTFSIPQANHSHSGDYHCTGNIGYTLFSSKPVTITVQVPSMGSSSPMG
The target of test [5] is human FcγRIIA_131H (CD32a) extracellular domain (human) (UniProt P12318). The description is as above.
human FcγRIIA_131H (CD32a) extracellular domain (human), sequence (P12318 34-217): as the sequence (P12318 34-217 H167R) above, with R134H counted along it

human FcγRI (CD64) extracellular domain (human), sequence (P12314 16-292): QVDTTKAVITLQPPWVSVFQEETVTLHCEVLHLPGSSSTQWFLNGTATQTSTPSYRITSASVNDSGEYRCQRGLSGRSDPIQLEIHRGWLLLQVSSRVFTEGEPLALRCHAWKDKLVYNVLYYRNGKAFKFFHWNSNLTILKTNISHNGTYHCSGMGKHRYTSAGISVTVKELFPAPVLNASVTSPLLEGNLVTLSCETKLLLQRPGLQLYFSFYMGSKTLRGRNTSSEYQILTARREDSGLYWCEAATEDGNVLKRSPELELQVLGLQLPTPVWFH

One may read the pKd as the Kd on a negative log10 scale, so that one unit is a factor of ten. Read a high pKd as a small Kd. For the substance Human WT IgG1 Fc (antibody), the negative logarithm of the Kd (pKd) is 10.37 in test [1]; 6.05 in test [2]; 5.72 in test [3]; 6.30 in test [4]; 6.30 in test [5].
